Measurements published in the supplement of paper PMC12455559.
± gives the standard deviation of the averaged measurements.

What was measured:
[1] = melting temperature (DSF); higher = more thermostable
How it was run: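 Values are melting temperatures from differential scanning fluorimetry. Candidate enzymes were expressed in E. coli C41(DE3), purified on nickel beads and freed by SUMO protease cleavage. In sealed PCR plates on a Bio-Rad CFX96, 45 μL enzyme (0 to 0.3 mg/mL) was combined with 5 μL 5X Sypro Orange. Fluorescence was recorded from 25 °C for 250 cycles, rising 0.3 °C per cycle at a ramp of 0.3 °C/s.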

[2] = PET hydrolysis, aromatic products released after 48 h (umol product/mg enzyme); higher = more PET depolymerization activity
How it was run: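 Sealed plates containing 3.5 mg PET (amorphous film or crystalline powder), 450 μL buffer and 5 μg (50 μL) tagless candidate enzyme were held 48 h at 40 or 60 °C with no shaking. Supernatants were then read at 260 and 280 nm against buffer blanks. The aromatic product detected this way, per mg enzyme, defines PET hydrolysis activity.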

[3] = purified protein yield per well (BCA); higher = higher soluble expression
How it was run: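 Each candidate enzyme was grown in E. coli C41(DE3) in a 2 mL autoinduction culture (100 µg/mL kanamycin; 2 h at 37 °C, then 40 h at 18 °C) and purified robotically via Ni-charged magnetic beads with SUMO protease cleavage. Purified protein yield per well was assessed using the Pierce Rapid Gold BCA kit. Readings below 25 ug (0.1 mg/mL) are beneath the detection threshold.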

[4] = substrate: aFilm, 40 °C, pH 4.5
[5] = substrate: aFilm, 40 °C, pH 5.5
[6] = substrate: aFilm, 40 °C, pH 6.5
[7] = substrate: aFilm, 40 °C, pH 7.5
[8] = substrate: aFilm, 60 °C, pH 4.5
[9] = substrate: aFilm, 60 °C, pH 5.5
[10] = substrate: aFilm, 60 °C, pH 6.5
[11] = substrate: aFilm, 60 °C, pH 7.5
[12] = substrate: cryPow, 40 °C, pH 4.5
[13] = substrate: cryPow, 40 °C, pH 5.5
[14] = substrate: cryPow, 40 °C, pH 6.5
[15] = substrate: cryPow, 40 °C, pH 7.5
[16] = substrate: cryPow, 60 °C, pH 4.5
[17] = substrate: cryPow, 60 °C, pH 5.5
[18] = substrate: cryPow, 60 °C, pH 6.5
[19] = substrate: cryPow, 60 °C, pH 7.5
[20] = substrate: cryPow, 40 °C, pH 8.5

| Sequence | melting temperature [1] [C] | PET hydrolysis [2, 4] | PET hydrolysis [2, 5] | PET hydrolysis [2, 6] | PET hydrolysis [2, 7] | PET hydrolysis [2, 8] | PET hydrolysis [2, 9] | PET hydrolysis [2, 10] | PET hydrolysis [2, 11] | PET hydrolysis [2, 12] | PET hydrolysis [2, 13] | PET hydrolysis [2, 14] | PET hydrolysis [2, 15] | PET hydrolysis [2, 16] | PET hydrolysis [2, 17] | PET hydrolysis [2, 18] | PET hydrolysis [2, 19] | purified protein yield per well [3] [µg] | PET hydrolysis [2, 20] |
| --- | --- | --- | --- | --- | --- | --- | --- | --- | --- | --- | --- | --- | --- | --- | --- | --- | --- | --- | --- |
| ADNPYQRGPDPTRTSVTAVNGPFANTSVSVPTGYGFNGGRIYYPTDTSQGTFGAIAISPGYTALFSAELAWMGPWLASHGFVVIGIETNSRNDFDTARGTQLLAALDYLTQQSPVRDRVDPNRLAVSGHSMGGGGALSAAMRRSSLKAVVGITPYSPSSNLANDRVPTMIISGQADTVVTPSYALGLYNSIPTTTKSVYLEVAGGDHGFMVGRSNPVMVRTMLPFVKMFIDNDARYSQFLCPLLDNSGVVTYRSTCPLLPTTPPTGTPTPTPTNSPTTPPPGSASGIVGAQSGRCIDVPNASRSNGTRVQLYDCNRQSNQSWTYTANKQLRVYGDMCLDAAGSGNGAAVQIYSCHNQTNQQWNVNSNGTITGVQSGRCLDVWSTSNGAQVQLYDCHGQANQQFRLAPLA [ESM059] | 65.8 | < 3 | 2 ± 2.8 | 1.5 ± 2.1 | < 3 | < 3 | < 3 | < 3 | < 3 | 10 | 21 ± 1.4 | 26 | 21.5 ± 2.1 | < 3 | 5 | 4 | 2 ± 2.8 | 311 | – |
| RPASAQDNPYERGPDPTVSSVAAQRGTFATAEVTVPPGNGFNGGKIYYPTDTSKGTWGAVAAVPGYTAKWAAEGAWMGPWLASFGFVVIGIDTNSPNDYDTARGTQLLAALDYLTQKSPVRDRVDPNRLGVIGHSMGGGGAISAAERRPSLKAALPLAPFSPSQNLSSLRVPTMIMGARDDGTVTPSYLNGLYAGMPAATPSAYIELTSGGHGFPTWGNSNVTRRTIPWLKIFLDNDTRYTQLLCPSPADRTGVSRSQVKCAYVPGGGTTPPPPSSGQIVGAASARCLDVPNSSQTNGTQLQLWDCLDQTSQKWARTDAGELRVYGNKCLDAEASGTSAGTRAIIWDCHGGQNQRWNVNANGTITSARSGLCLDANNAGTANGTQAILWTCNGGSNQRWTLR [TEP097] | 64.6 | < 3 | < 3 | < 3 | < 3 | < 3 | < 3 | < 3 | < 3 | 8 | 13 ± 1.4 | 31 ± 7.1 | 30.5 ± 2.1 | < 3 | 4.5 ± 0.71 | 4.5 ± 0.71 | 2 ± 2.8 | 270 | – |
| ATGPSSPCSNCTRGPDPTVASLKSATGPYTTAKFSVSGYLKGFGDSTVYYPTNASGKMGAIAVIPGYVSYEDSIKWWGPRLASHGFVVMTMNTSTIYDQPDSRATQLSKALDYMIAQSGSSSSPIYNKVDSTRLGVIGWSMGGGGTLKLSTQRSINAIIPQAPYYAGSNSFNTIKTPALILACGADAVAPVGVHASPFYNRIPGTTPKAYLEIYGGSHFCANSGYPNEDLLGMYGIAWMKRFIDFDSRYSKFLCGPNHTADLNISEYRQNCNY [DP078] | 59.5 | – | – | – | – | – | – | – | – | – | 9 | 47 | 60 | – | – | – | – | 29 | 66 |
| DEIGQAPTASNITGNGSFATTSESISSLVSGFGGGRVYYPTATGRYPVIAISPGFTATWSSLAWIGPRLSSWGFVVVGIETNSIYDQPGSRGNQLLAALNWAVNSSSTAVRSRVDGSRRGVAGHSMGGGGTLEALAADTSGLVKAGVPLAPWNTDKIWSNVSEPVLIVGGQADTIAPVATHSVPFYNTLAGPKTYVELTGASHFFPQTTNATTSRALVSWFKRWLNQDSRFTPYTCGFGGLAVSDFRSNAC [ESM147] | 67.9 | – | – | – | – | – | – | – | – | 11 | 29 | 31 | 46 | < 3 | 22 | 42 | 81 | 75.4 | – |
| RPAAPADSPYQRGPDPTVSSVAAQRGTFATAELTVPPGNGFNGGKIYYPTDTSQGTWAAVAAVPGYTAKWAAEGAWMGPWLASFGFVVIGIDTNSPNDYDTARGTQLLAALDYLTQRSPVRDRVDPGRLGVIGHSMGGGGAINAAERRPSLKAALPLAPFSPSQNLSTLRVPTMIMGARDDGTVTPSYLNGLYGGMPATTPSAYIELTSGGHGFPTWGNSNVTRRTIPWLKIFLDEDTRYTQFLCPSLPDRTGISRSQVTCGSVPGDGTTPPPATGRQVVGAASGRCLDVPGSSQANGTQLQLWDCLDQAGQKWARTDAGELRVLGGKCLDAEASGTAPGTRAVVWDCHGGTNQRWNVTPDGTITSAQSGLCLDAYNAGTANGTRTVLWTCNGGSNQRWTWR [TEP102] | 60.4 | < 3 | < 3 | < 3 | < 3 | < 3 | < 3 | < 3 | < 3 | 5.5 ± 0.71 | 13 ± 2.8 | 25.5 ± 0.71 | 26 ± 1.4 | < 3 | < 3 | < 3 | < 3 | 252 | – |
| ADNPYERGPDPTRTSVATERGPFANTSVSVPTGYGFNGGRIYYPTDTSQGTFGAIAISPGYTALFSAELAWMGPWLASHGFVVIGIETNSRNDFDTARGTQLLAALDYLTQQSPVRDRVDASRLAVAGHSMGGGGALSAATRRPALKAAVGITPFSPSSNLANDRVPTMVISGQADTVVTPSYALDLYNSLPSTTESVYVEVAGGDHGFMVGRSNPVMIRTMLPFLKIFVDNDARYSQFLCPLMDNSGVVTYRSTCPLINTPTTPPPTSPPPTSPPPTSPPPTTPPPGSATQIVGVQSNRCIDVPNSSRNNGTRVQLYDCHGQTNQAWTYTANKQLQVYGNMCLDAAGTGNGAAVQIYSCHGGANQQWNVNSNGTISGVQSGRCLDVWSTSNGAQVQLYDCHGGTNQRFNLVAR [TEP082] | 63.1 | < 3 | < 3 | < 3 | < 3 | < 3 | < 3 | < 3 | < 3 | 6.5 ± 0.71 | 15 ± 1.4 | 39.5 ± 2.1 | 34 ± 1.4 | < 3 | 2 ± 2.8 | 6 ± 1.4 | 3.5 ± 0.71 | 282 | – |
| ADNPYQRGPDPTVASVAATRGTFATAQLTVPAGNGFGGGYIYYPTDTSRGTYGAVAIVPGYSALFANEEAWMGPWLASFGFVVIGVETITRNDGADARATQLLAALDYLTQRSQVRDRVDATRLAVMGHSAGGAGTILASERRPSLKAAVGLAPGTPGSLSLATNHVPMMIIGGQTDPTVTPSYLNNLYATMPAATPSDFVQIAGADHLFFTRANNTEMKVLIPWLKIFLDNDTRYTQFLCPSLADPQGISLYRSKCPYLPPGTTSPSPSASSTLSPSPSVSPTASPSPSVSLTPSPSNPATGCAATYRTVNSWPGGFQGEVTVSAGGAPVDGWTVGWTLGSGQSITQLWNGTLTTSGSTVTVRNPAYGGSIPAGGSVVFGFLGTGTPSVPALTCTSP [ESM031] | 47.8 | – | – | – | – | – | – | – | – | < 3 | < 3 | < 3 | < 3 | < 3 | < 3 | < 3 | < 3 | 66.9 | – |
| ADNPYQRGPDPTRTSVAAVNGPFANTSVSVPTGYGFNGGRIYYPTDTSQGTFGAIAISPGYTALFSAELAWMGPWLASHGFVVIGIETNSRNDFDTARGTQLLAALDYLTQQSPVRDRVDPNRLAVSGHSMGGGGALSAAIRRSSLKAVVGIAPYSPSSNLANDRVPTMVFSGQADTVVTPSYATGLYNSLPATTESVYLEVAGADHGFMVGRSNPVMIRTMLPFVKMFIDNDTRYSQFLCPLLDSSGVVTYRSTCPLLPPAPTPSNTGTTPPTTPPVTPTTPPSSASEIVGVQSGRCIDVPNASRNNGTRVQLYDCNRQANQSWTYTSGKQLQVYGNMCLDAAGSGNGAAVQIYSCHSQTNQQWNVNSNGTISGVQSGRCLDVWSTANGAQIQLYDCHGGANQRFNLVPRT [ESM058] | 59.5 | < 3 | < 3 | < 3 | < 3 | < 3 | < 3 | < 3 | < 3 | 5.5 ± 0.71 | 12.5 ± 0.71 | 11 | 4.5 ± 0.71 | < 3 | < 3 | < 3 | < 3 | 281 | – |
| ADNPYERGPNPTESLIEAARGPFATSQTTVSSLSVTGFGGGVIYYPTDTSQGTFGGIAISPGYTAAWSSLDWLGPRLASHGFVVIGIETNTRLDQPASRGDQLLAALDYLTQRSSVRSRVDATRLAVAGHSMGGGGSLEAAKDRTSLKAAIPLAPWNTDKTWPEVRTPTLIIGGESDTVAPVSSHSIPFYTSLTSAREKAYLELDNASHFFPQTSNTTMAKYMISWMKRYIDNDTRYEQFLCPGPSTGLLSGISDWRQTCPGS [TEP073] | 46.9 | – | – | – | – | – | – | – | – | < 3 | < 3 | < 3 | < 3 | < 3 | < 3 | < 3 | < 3 | 81.6 | – |
| GQAAVPVAVAGTSAFAKGPDPTEQSIQAQRGPFATAQRTVPSEAGRAFNRGTVHYPTDTSHGTYGAVVVSPGFFGPEFSVAWYGSTLASHGFVVLTLETNFLFDQPDARATQLLAGLDWLAARSPVKDRVDPNRLAVMGHSMGGGGTLIAASRNPALKAAIPLTPWNTSPDFSTVTVPTLVLGTDNDTVAPVARHADPMYASLRDKPDEGYVKLRGDHFTPIRYTAAATRFIVPWLKRYVDEDTRYSRFLCPLPAPDATLVSFELRCPV [DP040] | 40.3 | – | – | – | – | – | – | – | – | – | < 3 | 3 | < 3 | – | – | – | – | 28 | < 3 |
| MIATIPDGSAAAAADDNPYQRGPDPTVASVAAQYGPFATAQITVPPGNGFNGGFIYYPTDTSHTYGAVAIVPGYTALFANEEAWMGPRLASFGFVVIGVETNSRNDYDTARGTQLLAALDYLTNSSAVRDRVDRNRLAVIGHSMGGGGSLYAATQRPSLKAAIGLAPFKPSGNLASDTVPTMIIGGINDTTVTPSYLDGLYPTLPAATPGAYLQLANADHLYFTRPNDIELRSQIEWLKIFVDNDARYTQFLCPSIKDTTGIARSNVKCSTIPSGGSTPPSSPPPVPSGPQRILAAQSGRCVDVPNATHNNGTRVQLYDCNGQANQQWTSTSSKQLTVYGNVCLDAAGSGNGAAVQIYSCNGQSNQQWNVNANGTITGVQSGRCLDVWGTGNGQQIQLWDCNGQANQRFSLS [TEP181] | 50.2 | < 3 | < 3 | < 3 | < 3 | < 3 | < 3 | < 3 | < 3 | 4.5 ± 0.71 | 12.5 ± 0.71 | 11 ± 1.4 | < 3 | < 3 | < 3 | < 3 | < 3 | 249 | – |
